B8: recombinant DR3 (DR3-His tag) (receptor, human, UniProt Q93038 25-199, looked up)
chain: QGGTRSPRCDCAGDFHKKIGLFCCRGCPAGHYLKAPCTEPCGNSTCLVCPQDTFLAWENHHNSECARCQACDEQASQVALENCSAVADTRCGCKPGWFVECQVSQCVSSSPFYCQPCLDCGALHRHTRLLCSRRDTDCGTCLPGFYEHGDGCVSCPTSTLGSCPERCAAVCGWRQ
notes: it is treated as the same reagent; also called rDR3; death receptor 3; not shown: His tag

The target of assay [1] is B8. Nature of the assay: SPR, Biacore T100, DR3-His tag immobilized on CM5 chip. Here is the method:
(§1) SPR was performed using monoclonal antibodies from the clones selected in Example 1. After immobilizing 10 μg/ml DR3-His tag on a CM5 chip, the binding specificity and binding strength were measured using Biacore T100 under the conditions of a contact time of 30 sec and a flow rate of […].
On the technique in general: In SPR one partner is held on a chip, and binding of the other changes the refractive index at the surface.

Assay [2] addresses B8. Briefly: phage ELISA of single scFv clones on recombinant DR3. In general terms: In an ELISA, binding on a coated surface is turned into a signal by an enzyme label.
Assay [3] concerns the target B8. Nature of the assay: ELISA, DR3-His tag on Ni plate, anti-human IgG Fc HRP. On the procedure: The functionally best subclass of the anti-DR3 4-4 antibody identified as the best in Example 2 was analyzed. For this purpose, as anti-DR3 4-4 antibodies, clone 4-4 IgG1, clone 4-4 IgG2, and clone 4-4 IgG4 monoclonal antibodies were prepared according to IgG subclass, and ELISA was performed to compare the binding affinity to DR3. Specifically, 0.4 μg/ml DR3-His tag was put into and mixed with PBS, and then a Ni plate was coated with a total of 50 μl of the mixed solution. Thereafter, to prevent non-specific binding, the Ni plate was mixed with 200 μl of PBS consisting of 5% FBS and incubated at room temperature for 30 minutes, and incubated for 30 minutes by titrating the monoclonal antibody. The degree of binding between the coated DR3 and the monoclonal antibody was detected with anti-human IgG Fc HRP. The plate was washed five times with 250 μl of 0.1% Tween 20 at each step.

For assay [4], the target named is T1, DR3 expressed on the cell surface (DR3 stable cell line) (human, UniProt Q93038 25-417).
T1 construct: whole, on cells; also called DR3 natural form; human DR3
T1 sequence (looked up): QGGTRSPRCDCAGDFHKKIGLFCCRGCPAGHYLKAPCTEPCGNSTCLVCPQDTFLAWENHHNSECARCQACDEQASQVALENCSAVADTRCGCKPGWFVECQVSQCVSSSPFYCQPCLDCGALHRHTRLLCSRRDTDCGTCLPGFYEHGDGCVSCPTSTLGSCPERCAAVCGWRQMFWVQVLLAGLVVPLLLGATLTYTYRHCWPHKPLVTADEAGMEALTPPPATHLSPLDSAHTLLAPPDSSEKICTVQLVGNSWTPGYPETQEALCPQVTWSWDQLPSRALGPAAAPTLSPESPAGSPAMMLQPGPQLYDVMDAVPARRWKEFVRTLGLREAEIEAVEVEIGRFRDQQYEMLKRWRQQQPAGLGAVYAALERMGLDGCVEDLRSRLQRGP
Nature of the assay: FACS on DR3 stable cell line, 2 ug/ml antibody, anti-human IgG PE. Here is the method: FACS was performed using monoclonal antibodies from the clones selected in Example 1. Specifically, a DR3 stable cell line at a concentration of 0.2×10⁶ was mixed with 2 μg/ml monoclonal antibody and incubated at 4° C. for 30 minutes, and the degree of binding between the DR3 stable cell line and the monoclonal antibody was confirmed by FACS analysis using anti-human IgG PE. For each step, cells were washed once with 200 μl of PBS. Isotype control was used as a negative control.

Assay [5] has as its target T2, TL1A (tumor necrosis factor-like ligand 1A), His tag (human, UniProt O95150 72-251).
T2 construct: also called TL1A His tag; TL1A-His tag; not shown: His tag
T2 sequence (looked up): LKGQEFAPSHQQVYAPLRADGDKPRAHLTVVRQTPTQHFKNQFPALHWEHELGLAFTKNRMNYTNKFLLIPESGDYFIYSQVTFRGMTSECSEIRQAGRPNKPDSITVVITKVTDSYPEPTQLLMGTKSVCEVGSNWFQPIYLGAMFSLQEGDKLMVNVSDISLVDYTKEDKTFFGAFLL
Nature of the assay: SPR, Biacore T100, DR3-His tag immobilized on CM5 chip; TL1A as reference. On the procedure:
as §1

B1: anti-DR3 3-18 monoclonal antibody (antibody, V domains shown)
VH: QVQLQQSGPGLVKPSETLSLTCTVSGGSISSSSYYWGWIRQPPGKGLEWIGSIYYSGSTYYNPSLKSRVTISVDTSKNQFSLKLSSVTAADTAVYYCARQVSGPLDYWGQGTLVTVS
VL: DIVMTQSPSSLSASVGDRVTITCRASQGIRNDLGWYQQKPGKAPKLLIYAASSLQSGVPSRFSGSGSGTDFTLTISSLQPEDFATYYCLQDYNYPRTFGQGTKVEIK
notes: Human IgG; also called 3-18 mAb; clone 3-18
In the case of B1, the binding result in assay [1] is listed as “binds”.

B2: anti-DR3 scFv clone 3-18 (phage display) (scFv, V domains shown)
VH: QVQLQQSGPGLVKPSETLSLTCTVSGGSISSSSYYWGWIRQPPGKGLEWIGSIYYSGSTYYNPSLKSRVTISVDTSKNQFSLKLSSVTAADTAVYYCARQVSGPLDYWGQGTLVTVS
VL: DIVMTQSPSSLSASVGDRVTITCRASQGIRNDLGWYQQKPGKAPKLLIYAASSLQSGVPSRFSGSGSGTDFTLTISSLQPEDFATYYCLQDYNYPRTFGQGTKVEIK
As for B2, the binding result in assay [2] is “binds”.

B3: anti-DR3 4-4 IgG4 monoclonal antibody (antibody, V domains shown)
VH: EVQLVESGGGLVKPGGSLRLSCAASGFTFSDYYMSWIRQAPGKGLEWVSYISSSSSYTNYADSVKGRFTISRDNAKNSLYLQMNSLRAEDTAVYYCASNVDTAMVGAFDIWGQGTLVTVSS
VL: DIEMTQSPSSVSASVGDTVTITCRASQHISNWLAWYQQKPGQAPKFLIYTASNLQSGVPSRFSGSGYGTDFTLTISGLQPEDFATYYCQQADSFPLTFGGGTKVDIKR
notes: also called clone 4-4 IgG4; human 4-4 IgG4P mAb
As for B3, in assay [3], the binding result is recorded as “binds”.

B4: anti-DR3 scFv clone 2-10 (phage display) (scFv, V domains shown)
VH: QVQLVQSGAEVKKPGASVKVSCKASGYTFTSYGISWVRQAPGQGLEWMGWISAYNGNTNYAQKLQGRVTMTTDTSTSTAYMELRSLRSDDTAVYYCASGPDYGMLDYWGQGTLVTVS
VL: EIVMTQSPSSLPASVGDRVTITCQASQDISNYLNWYQQKPGKAPKLLIYDASNLETGVPSRFSGSGSGTDFTFTISSPQPEDIATYYCQQYDNLPLTFGGGTKVEIK
As to B4, the binding result in assay [2] is recorded as “binds”.

B5: anti-DR3 2-10 monoclonal antibody (antibody, V domains shown)
VH: QVQLVQSGAEVKKPGASVKVSCKASGYTFTSYGISWVRQAPGQGLEWMGWISAYNGNTNYAQKLQGRVTMTTDTSTSTAYMELRSLRSDDTAVYYCASGPDYGMLDYWGQGTLVTVS
VL: EIVMTQSPSSLPASVGDRVTITCQASQDISNYLNWYQQKPGKAPKLLIYDASNLETGVPSRFSGSGSGTDFTFTISSPQPEDIATYYCQQYDNLPLTFGGGTKVEIK
notes: Human IgG (detected with anti-human IgG Fc); also called 2-10 mAb; clone 2-10
With B5, in assay [1], the binding result was “binds”.

B6: anti-DR3 6-15 monoclonal antibody (antibody, V domains shown)
VH: QVQLVQSGGGLVQPGGSLRLSCAASGFTFSSYSMNWVRQAPGKGLEWVSYISSSSSTIYYADSVKGRFTISRDNAKNSLYLQMNSLRAEDTAVYYCARWDGYCSGGSCYSGMDYWGQGTLVTVS
VL: DIEMTQSPSSLSASVGDKVTITCQASQDISNYLNWYQQKPGKAPKLLIYDASNLETGVPSRFSGSGSGTDSTFTISSLQPEDIATYYCQQYDNLPLTFGGGTKVEIK
notes: Human IgG; also called 6-15 mAb; clone 6-15
For B6, the binding result in assay [4] and in assay [3] was “binds” each time.

B7: anti-DR3 scFv clone 6-15 (phage display) (scFv, V domains shown)
VH: QVQLVQSGGGLVQPGGSLRLSCAASGFTFSSYSMNWVRQAPGKGLEWVSYISSSSSTIYYADSVKGRFTISRDNAKNSLYLQMNSLRAEDTAVYYCARWDGYCSGGSCYSGMDYWGQGTLVTVS
VL: DIEMTQSPSSLSASVGDKVTITCQASQDISNYLNWYQQKPGKAPKLLIYDASNLETGVPSRFSGSGSGTDSTFTISSLQPEDIATYYCQQYDNLPLTFGGGTKVEIK
As to B7, the binding result in assay [2] is recorded as “binds”.

For the molecule B8, in assay [5], the binding result is on record as “binds”.

B9: anti-DR3 4-4 monoclonal antibody (subclass not stated) (antibody, V domains shown)
VH: EVQLVESGGGLVKPGGSLRLSCAASGFTFSDYYMSWIRQAPGKGLEWVSYISSSSSYTNYADSVKGRFTISRDNAKNSLYLQMNSLRAEDTAVYYCASNVDTAMVGAFDIWGQGTLVTVS
VL: DIEMTQSPSSVSASVGDTVTITCRASQHISNWLAWYQQKPGQAPKFLIYTASNLQSGVPSRFSGSGYGTDFTLTISGLQPEDFATYYCQQADSFPLTFGGGTKVDIK
notes: also called 4-4 mAb; clone 4-4
On to B9, for which the binding result in assay [1] and in assay [4] was “binds” each time.

B10: clone 4-4 IgG2 monoclonal antibody (antibody, V domains shown)
VH: EVQLVESGGGLVKPGGSLRLSCAASGFTFSDYYMSWIRQAPGKGLEWVSYISSSSSYTNYADSVKGRFTISRDNAKNSLYLQMNSLRAEDTAVYYCASNVDTAMVGAFDIWGQGTLVTVS
VL: DIEMTQSPSSVSASVGDTVTITCRASQHISNWLAWYQQKPGQAPKFLIYTASNLQSGVPSRFSGSGYGTDFTLTISGLQPEDFATYYCQQADSFPLTFGGGTKVDIK
notes: IgG2 subclass
As to B10, the binding result in assay [3] is on record as “binds”.

B11: clone 4-4 IgG1 monoclonal antibody (antibody, V domains shown)
VH: EVQLVESGGGLVKPGGSLRLSCAASGFTFSDYYMSWIRQAPGKGLEWVSYISSSSSYTNYADSVKGRFTISRDNAKNSLYLQMNSLRAEDTAVYYCASNVDTAMVGAFDIWGQGTLVTVS
VL: DIEMTQSPSSVSASVGDTVTITCRASQHISNWLAWYQQKPGQAPKFLIYTASNLQSGVPSRFSGSGYGTDFTLTISGLQPEDFATYYCQQADSFPLTFGGGTKVDIK
notes: IgG1 subclass; also called anti-DR3 4-4 IgG1 antibody
In the case of B11, the binding result in assay [3] is “binds”.

B12: anti-DR3 scFv clone 4-4 (phage display) (scFv, V domains shown)
VH: EVQLVESGGGLVKPGGSLRLSCAASGFTFSDYYMSWIRQAPGKGLEWVSYISSSSSYTNYADSVKGRFTISRDNAKNSLYLQMNSLRAEDTAVYYCASNVDTAMVGAFDIWGQGTLVTVS
VL: DIEMTQSPSSVSASVGDTVTITCRASQHISNWLAWYQQKPGQAPKFLIYTASNLQSGVPSRFSGSGYGTDFTLTISGLQPEDFATYYCQQADSFPLTFGGGTKVDIK
Regarding B12, in assay [2], the binding result was “binds”.

Values taken from patent US20260159596A1 (SELECXINE, published 2026).
